The record followed here is US20080153749.

The target of series [1] is T1, full-length HTm4 protein (human, recombinant, His tag cleaved with Factor Xa).
T1 chain: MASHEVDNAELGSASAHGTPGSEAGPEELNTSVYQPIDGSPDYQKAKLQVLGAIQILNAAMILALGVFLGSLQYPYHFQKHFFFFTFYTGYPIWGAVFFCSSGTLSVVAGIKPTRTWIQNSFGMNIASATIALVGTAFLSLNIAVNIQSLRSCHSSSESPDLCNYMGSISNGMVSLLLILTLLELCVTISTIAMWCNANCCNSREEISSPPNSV

Series [2] deals with cdk2.cyclin A complex (recombinant, Upstate), P24941.

B1: KAP (wild-type, full-length KAP protein) (protein)
chain: MKPPSSIQTSEFDSSDEEPIEDEQTPIHISWLSLSRVNCSQFLGLCALPGCKFKDVRRNVQKDTEELKSCGIQDIFVFCTRGELSKYRVPNLLDLYQQCGIITHHHPIADGGTPDIASCCEIMEELTTCLKNYRKTLIHCYGGLGRSCLVAACLLLYLSDTISPEQAIDSLRDLRGSGAIQTIKQYNYLHEFRDKLAAHLSSRDSQSRSVSR
Consider B1, for which, in series [1], the “Km of KAP phosphatase activity in the presence of HTm4” value was “A parallel increase in Km (to 8.33 µM) was also observed”, the “Vmax of KAP phosphatase activity in the presence of HTm4” value is listed as “the Vmax of KAP phosphatase activity increased dramatically to 17.5 nM/min” and the “dephosphorylating activity of KAP toward phosphorylated cdk2” value was “HTm4 increases the dephosphorylating activity of KAP toward phosphorylated cdk2 by more than 6-fold”. Also, in series [2], the “Km of KAP phosphatase activity in the absence of HTm4 (substrate active cdk2.cyclin A)” value is “Vmax and Km for the samples in the presence and absence of HTm4 are 17.5, 1.30 nM/min, and 8.33, 2.68 µM, respectively”; the “Vmax of KAP phosphatase activity in the absence of HTm4 (substrate active cdk2.cyclin A)” value was “Vmax and Km for the samples in the presence and absence of HTm4 are 17.5, 1.30 nM/min, and 8.33, 2.68 µM, respectively”.
